Data on 18 molecules can be found in US20100240066A1 (MCGILL UNIVERSITY, published 2010).

Where no end group is shown, it is not given here.

T1: N-cadherin/Fc chimeric protein (human, UniProt P19022 160-724)
T1 construct: range 160-724; Bought from R&D Systems; also called N-cad/Fc; human N-cadherin/Fc chimeric protein; not shown: Fc region of human IgG1
T1 sequence (looked up): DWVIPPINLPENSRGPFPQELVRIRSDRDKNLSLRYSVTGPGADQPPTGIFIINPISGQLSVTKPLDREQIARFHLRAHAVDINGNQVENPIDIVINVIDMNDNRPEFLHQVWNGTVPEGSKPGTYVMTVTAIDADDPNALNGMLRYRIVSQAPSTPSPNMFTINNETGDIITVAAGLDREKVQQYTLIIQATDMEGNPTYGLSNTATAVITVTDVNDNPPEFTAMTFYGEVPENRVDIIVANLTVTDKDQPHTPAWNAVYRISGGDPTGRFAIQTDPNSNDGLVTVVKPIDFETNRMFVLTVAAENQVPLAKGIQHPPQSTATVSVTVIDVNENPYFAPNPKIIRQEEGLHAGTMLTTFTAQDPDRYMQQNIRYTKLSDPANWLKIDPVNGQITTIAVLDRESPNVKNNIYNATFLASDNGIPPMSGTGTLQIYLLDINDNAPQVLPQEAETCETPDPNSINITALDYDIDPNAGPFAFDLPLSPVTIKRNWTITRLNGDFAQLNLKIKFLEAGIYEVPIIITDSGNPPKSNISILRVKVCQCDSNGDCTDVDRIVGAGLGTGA

T2: E-cadherin/Fc chimeric protein (human, UniProt P12830 155-707)
T2 construct: range 155-707; Bought from R&D Systems; also called E-cad/Fc; human E-cadherin/Fc chimeric protein; not shown: Fc region of human IgG1
T2 sequence (looked up): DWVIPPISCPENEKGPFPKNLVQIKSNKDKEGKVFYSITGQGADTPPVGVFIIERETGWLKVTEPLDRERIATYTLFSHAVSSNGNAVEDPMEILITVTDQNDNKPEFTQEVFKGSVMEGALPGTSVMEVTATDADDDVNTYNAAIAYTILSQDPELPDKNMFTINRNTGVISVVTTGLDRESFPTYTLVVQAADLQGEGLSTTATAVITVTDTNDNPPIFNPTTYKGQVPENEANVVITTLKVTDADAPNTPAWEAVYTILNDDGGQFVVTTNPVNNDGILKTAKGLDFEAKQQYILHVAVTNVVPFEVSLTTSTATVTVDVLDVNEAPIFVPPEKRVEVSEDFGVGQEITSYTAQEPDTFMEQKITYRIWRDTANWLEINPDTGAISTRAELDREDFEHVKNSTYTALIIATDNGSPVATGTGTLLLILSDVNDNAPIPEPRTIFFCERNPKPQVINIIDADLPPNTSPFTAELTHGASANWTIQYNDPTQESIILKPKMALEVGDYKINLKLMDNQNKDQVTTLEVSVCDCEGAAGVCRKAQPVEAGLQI

T3: VE-cadherin/Fc chimeric protein (UniProt P33151 48-593)
T3 construct: Bought from R&D Systems; also called vascular endothelial (VE)-cadherin/Fc chimeric protein; not shown: Fc part not described
T3 sequence (looked up): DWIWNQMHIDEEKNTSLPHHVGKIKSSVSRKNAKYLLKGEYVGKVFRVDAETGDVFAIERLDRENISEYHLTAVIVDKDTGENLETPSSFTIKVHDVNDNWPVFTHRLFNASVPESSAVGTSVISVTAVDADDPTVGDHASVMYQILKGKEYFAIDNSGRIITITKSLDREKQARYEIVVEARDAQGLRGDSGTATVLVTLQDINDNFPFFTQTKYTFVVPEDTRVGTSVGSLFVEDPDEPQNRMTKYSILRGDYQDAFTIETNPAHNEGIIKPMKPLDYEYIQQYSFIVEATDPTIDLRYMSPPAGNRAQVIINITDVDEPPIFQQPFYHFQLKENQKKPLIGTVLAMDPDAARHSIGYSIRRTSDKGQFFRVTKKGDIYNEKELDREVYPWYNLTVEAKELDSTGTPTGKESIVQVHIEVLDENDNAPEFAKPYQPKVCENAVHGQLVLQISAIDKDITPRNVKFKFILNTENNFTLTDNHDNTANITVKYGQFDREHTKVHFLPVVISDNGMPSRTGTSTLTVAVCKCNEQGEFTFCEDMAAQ

B1: phage clone Ec a4 (peptide)
peptide: CSKYNSPLC
modifications: not fully specified; cysteine pairing not given here; also: displayed on M13 phage pIII
notes: whole phage in the assay
B2: phage clone Ec 1 (peptide)
peptide: WELVQCLTC
modifications: not fully specified; cysteine pairing not given here
notes: whole phage in the assay
B3: phage clone Ec a3 (peptide)
peptide: WQMVLCPAC
modifications: not fully specified; cysteine pairing not given here; also: displayed on M13 phage pIII
notes: whole phage in the assay
B4: phage clone Ec 21 (peptide)
peptide: WQWCFKATC
modifications: not fully specified; cysteine pairing not given here; also: displayed on M13 phage pIII
notes: whole phage in the assay
B5: phage clone Ec a22 (peptide)
peptide: WTWHWPPCC
notes: whole phage in the assay
B6: phage clone Ec a5 (peptide)
peptide: WTFNFCTAC
modifications: not fully specified; cysteine pairing not given here; also: displayed on M13 phage pIII
notes: whole phage in the assay
B7: phage clone Ec a23 (peptide)
peptide: CSRPQSGLC
modifications: not fully specified; cysteine pairing not given here; also: displayed on M13 phage pIII
notes: whole phage in the assay
B8: phage clone Nc 8 (peptide)
peptide: WTVCPIGNC
modifications: not fully specified; cysteine pairing not given here; also: displayed on M13 phage pIII
notes: whole phage in the assay
B9: phage clone Nc a7 (peptide)
peptide: WELRVSSPC
notes: whole phage in the assay
B10: phage clone Nc a5 (peptide)
peptide: WLQPYFPSY
notes: whole phage in the assay
B11: phage clone Nc 15 (peptide)
peptide: WEVCLTEKC
modifications: not fully specified; cysteine pairing not given here; also: displayed on M13 phage pIII
notes: whole phage in the assay
B12: phage clone Nc a3 (peptide)
peptide: WEVRLTEKC
notes: whole phage in the assay
B13: phage clone Nc 12-04 (peptide)
peptide: SWTLYTPSGQSK
notes: whole phage in the assay
B14: phage clone Nc 19 (peptide)
peptide: WHTSWSDTY
notes: whole phage in the assay
B15: phage clone Nc 1 (peptide)
peptide: WLQPYFPSY
notes: whole phage in the assay
B16: phage clone Nc 5 (peptide)
peptide: WEFSICETC
modifications: not fully specified; cysteine pairing not given here; also: displayed on M13 phage pIII
notes: whole phage in the assay
B17: phage clone Nc 25 (peptide)
peptide: WELCVSSSC
modifications: not fully specified; cysteine pairing not given here; also: displayed on M13 phage pIII
notes: whole phage in the assay
B18: phage clone Nc 12-a2 (peptide)
peptide: SWTLYTPSGQSK
notes: whole phage in the assay

In one test the target is T1, N-cadherin/Fc chimeric protein. In words: phage ELISA. The procedure:
(§1) The binding of each clone to the cadherin/Fc chimeric proteins was confirmed by ELISA. Wells of ProBind microtiter plates (Falcon) were coated with either N-cadherin/Fc or E-cadherin/Fc chimeric protein (100 ng/well) or human IgG1 (which contains the Fc fragment) (100 ng/well). After blocking the nonspecific sites with TBS containing 3% BSA and 1.2 mM CaCl₂ for 1 h at 37° C., phage clones (10⁹ pfu) diluted in TBST containing 3% BSA and 1.2 mM CaCl₂ (100 μl/well). Non-coated wells were also used to exclude any phage that bound to the plastic surface. After 1 h incubation at room temperature, wells were washed 3 times with TBST containing 3% BSA and 1.2 mM CaCl₂. M13 phage without any insert were used to control the non-specific binding of the phage itself to the target. Monoclonal anti-M13 antibody conjugated to horseradish peroxidase (Amersham Biosciences, Piscataway, N.J.) was diluted in TBST containing 3% BSA and 1.2 mM CaCl₂ (1:2,000) and added to each well (100 μl/well). After 1 h incubation at room temperature, wells were washed three times with TBST containing 3% BSA and 1.2 mM CaCl₂ and once with TBS containing 1.2 mM CaCl₂. Horseradish peroxidase substrate, TMB (Sigma), was added to each well (100 μl/well and after color development the reaction was stopped by addition of 100 μl 0.5 M sulphuric acid to each well. The intensity of the color was measured at 450 nm.
(§2) The phage clones shown to bind to the N-cadherin/Fc chimeric protein by ELISA were also evaluated for their ability to bind to E-cadherin/Fc and VE-cadherin/Fc chimeric proteins. The phage clones shown to bind to the E-cadherin/Fc chimeric protein by ELISA were also evaluated for their ability to bind to N-cadherin/Fc and VE-cadherin/Fc chimeric proteins. The same ELISA protocol described in the previous section was used to perform this evaluation with the exception that the wells were coated with either 100 ng N-cadherin/Fc, E-cadherin/Fc or VE-cadherin/Fc chimeric protein (R&D Systems, Minneapolis, Minn.).
For orientation: An ELISA detects its analyte on a solid surface through an enzyme-linked reagent.
On to B1, for which the binding result is recorded as “binds”.

With B2, the binding result is recorded as “binds”.

Turning to B3, the binding result is on record as “binds”.

As to B4, the binding result is “binds”.

Regarding B5, the binding result is “binds”.

On to B6, for which the binding result is “binds”.

With B7, the binding result is “binds”.

In the next test the target is T2, E-cadherin/Fc chimeric protein. As to the kind of experiment: phage ELISA. As to the method:
as §1, §2
B1: the binding result is given as “binds”.

Take B2: the binding result is recorded as “binds”.

For the molecule B3, the binding result is listed as “binds”.

Consider B4, for which the binding result is “binds”.

Take B5: the binding result is reported as “binds”.

With B6, the binding result is recorded as “binds”.

As for B7, the binding result is “binds”.

The next test concerns the target T3, VE-cadherin/Fc chimeric protein. As to the kind of experiment: phage ELISA. The procedure: as §1, §2
For the molecule B1, the binding result was “no binding (tested: 10^9 pfu)”.

On to B2, for which the binding result is reported as “no binding (tested: 10^9 pfu)”.

Consider B3, for which the binding result was “no binding (tested: 10^9 pfu)”.

Regarding B4, the binding result is on record as “no binding (tested: 10^9 pfu)”.

As for B5, the binding result is “no binding (tested: 10^9 pfu)”.

Take B6: the binding result was “no binding (tested: 10^9 pfu)”.

In the case of B7, the binding result is given as “no binding (tested: 10^9 pfu)”.

For the next test, the target named is T2, E-cadherin/Fc chimeric protein. In words: phage ELISA. The source holds these as a separate data set. The procedure:
as §2
With B8, the binding result is on record as “no binding (tested: 10^9 pfu)”.

Take B9: the binding result was “no binding (tested: 10^9 pfu)”.

In the case of B10, the binding result is recorded as “no binding (tested: 10^9 pfu)”.

As for B11, the binding result is reported as “no binding (tested: 10^9 pfu)”.

Regarding B12, the binding result is on record as “no binding (tested: 10^9 pfu)”.

Take B13: the binding result is “no binding (tested: 10^9 pfu)”.

As to B14, the binding result is on record as “no binding (tested: 10^9 pfu)”.

In the case of B15, the binding result is recorded as “no binding (tested: 10^9 pfu)”.

Consider B16, for which the binding result was “no binding (tested: 10^9 pfu)”.

In the case of B17, the binding result is given as “no binding (tested: 10^9 pfu)”.

For B18, the binding result was “no binding (tested: 10^9 pfu)”.

In the next test the target is T3, VE-cadherin/Fc chimeric protein. In words: phage ELISA. The source holds these as a separate data set. The procedure: as §2
For B8, the binding result is “no binding (tested: 10^9 pfu)”.

Turning to B9, the binding result is “no binding (tested: 10^9 pfu)”.

Turning to B10, the binding result is listed as “no binding (tested: 10^9 pfu)”.

For the molecule B11, the binding result is “no binding (tested: 10^9 pfu)”.

For B12, the binding result was “no binding (tested: 10^9 pfu)”.

For B13, the binding result is recorded as “no binding (tested: 10^9 pfu)”.

As to B14, the binding result is on record as “no binding (tested: 10^9 pfu)”.

As to B15, the binding result is listed as “no binding (tested: 10^9 pfu)”.

Take B16: the binding result is “no binding (tested: 10^9 pfu)”.

For the molecule B17, the binding result is on record as “no binding (tested: 10^9 pfu)”.

On to B18, for which the binding result is given as “no binding (tested: 10^9 pfu)”.
